Experiments:
[1] = tested on: mouse bleomycin-induced lung fibrosis model; experiment: Mouse bleomycin-induced lung fibrosis model; type: in vivo
Description: Fibrosis of the lung represents an additional significant form of fibrotic disease with significant health impacts in humans. To evaluate if the anti-fibrotic effects of GAL3-TIM3 blockade extend into the setting of lung fibrosis, a mouse bleomycin-induced lung fibrosis model was evaluated for sensitivity to mIMT001. Briefly, C57Blck/6 male mice were injected intra-tracheally with 30 ug of Bleomycin Sulfate (MP biomedicals, cat #190306) reconstituted in 50 ul of PBS. Mice were treated on day 18, 20, 22, and 24 with mIgG2b isotype control, anti-GAL3 antibody (mIMT001) (10 mg/kg) by tail vein injection, or small molecule TD139 (Med Chem Express, cat #HY-19940) at 10 uM in 50 ul of Captisol (Med Chem Express, cat #HY-17031) injected intra-tracheally. Mice were sacrificed on day 27 and lungs were surgically dissected and fixed in 4% paraformaldehyde for 24 hours, exchanged into 70% ethanol, and embedded in paraffin. Lung fibrosis in fixed specimens was evaluated by Masson's trichrome staining kit (26367) from Electron Microscopy Sciences (Hatfield, Pa.). […] lung sections were affixed to glass slides, After deparaffinization, rehydration in serial ethanol baths. Staining was performed by incubating in Bouin's fixative for 1 h at 56 degree, staining with Briebrich Scarlet/acid fuchsin, Phosphomolybdic Acid-Phosphotungstic Acid and Aniline Blue, then differentiated in acetic acid, prior to their dehydration, clearing and mounting.

[2] = target: T1, interaction between Gal3 and TIM-3 (Mus musculus, UniProt P16110); experiment: Blocking ELISA, mouse Gal3 coated plate and mouse TIM-3 Fc; type: binding; conditions: mGal3 coated plate, mouse TIM-3 Fc
T1 construct: purchased BioLegend (mouse Gal3); R&D systems (mouse TIM-3 Fc)
T1 sequence (P16110 2-264 limits assumed): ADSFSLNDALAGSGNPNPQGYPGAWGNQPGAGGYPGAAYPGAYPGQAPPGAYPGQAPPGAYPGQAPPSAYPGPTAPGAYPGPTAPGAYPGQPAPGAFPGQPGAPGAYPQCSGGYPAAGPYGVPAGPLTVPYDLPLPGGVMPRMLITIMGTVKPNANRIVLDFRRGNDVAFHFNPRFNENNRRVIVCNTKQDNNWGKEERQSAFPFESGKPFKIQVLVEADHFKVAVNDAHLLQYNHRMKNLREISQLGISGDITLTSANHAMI
Description: ELISA assays were also performed to test the interaction between Gal3 and TIM-3. 96 well ELISA plates (ThermoFisher Scientific) were coated with mouse Gal3 protein (BioLegend, San Diego, Calif.) in PBS or human Gal9 protein (R&D systems) in PBS or phosphatidylserine (PS) (Sigma) in ethanol and incubated at 4° C. for overnight. The plate was washed three times with TBST and then blocked with PBS buffer containing 2% BSA at room temperature for 1 hour. In FIG. 5A, different anti Gal3 antibodies, i.e. mGal3 polyclonal antibody (R&D systems), mAb IMT001 (also described in WO 2019/023247, hereby expressly incorporated by reference in its entirety), mAb M3/38 (Thermofisher Scientific) (FIG. 5A), were added to well that has been coated with Gal3. The antibodies were incubated for 10 minutes and mouse TIM-3 Fc were then added to the plates and incubated for an additional one-hour incubation. Plates were then washed for three times and followed by incubation with anti-human-IgG-HRP (Jackson ImmunoResearch) for 1 h at room temperature. The color was developed with TMB subtract (GeneTex, Irvine, Calif.) after three time washes with TBST and the reaction was terminated with 1N HCl. The optical density (OD) was read at 450 nm. The results were expressed as the average OD of duplicates±SD. […]

[3] = tested on: a-SMA and fibronectin; experiment: N-IF mouse liver fibrosis, western blot of fibrosis markers; type: in vivo; conditions: 10 mg/kg every fourth day for 40 days, vs mIgG2b
Description: N-IF mice were generated by crossing 24αβNOD mice and NOD.Rag2−/− mouse strains. The N-IF mice were backcrossed with the B6.Rag2−/− mouse strains for 10 generations. Mice (male and female) were separated into two groups: IMT001 antibody treatment group and mIgG2b antibody control group. Antibodies were administered to the animals every fourth day for 40 days, at 10 mg/kg body weight and the animals were subsequently sacrificed. All efforts were made to minimize suffering. Liver and Kidney tissues were collected and snap frozen in liquid nitrogen for western blot analysis. Tissue processing and western blot analysis were performed as in Example 19. GAPDH was used a loading control reference.

[4] = tested on: B16F10 cells; experiment: Immune profiling in B16F10 lung metastasis mice; type: in vivo, mouse; conditions: 10 mg/kg I.P., day 8, vs isotype control
Description: Mice were implanted with 1 million B16F10 cells I.V. Mice were then treated with IMT001 or isotype control (10 mg/kg I.P.) on Day 0, 1, 3 and 7 and sacrificed on day 8 for lung immune cell isolation and phenotyping. Cells were isolated from the lungs, and then stained with fluorescently labeled antibodies against lymphocyte markers CD3, CD4, CD8, CD19, DX5 and analyzed by flow cytometry.

block of Gal3 binding to TIM-3 [2]: blocked
B1: IMT001: anti-Gal3 monoclonal antibody (Immutics); printed as mIMT001 (IMT001), murine (antibody, V domains shown)
VH: QIQLVQSGPELKKPGETVKISCKASGYTFTNYGMNWVKQAPGKGLKWMGWINTNTGEPTYVEEFKGRFAFSLETSASTAYLQINNLKNEDTATYFCAPYDNFFAYWGQGTLVTVSA
VL: DIVITQDELSNPVTSGESVSISCRSSKSLLYKDGKTYLNWFLQRPGQSPQLLIYLMSTHASGVSDRFSGSGSGTDFTLEISRVKAEDVGVYYCQQLVDYPLTFGAGTKLELK
Ashcroft score ([1]; 10 mg/kg tail vein day 18, 20, 22, 24, isotype 5.74): 4.09
decrement in fibrotic injury ([1]; vs isotype control): 29%
lung fibrosis, Masson's trichrome ([1]; vs isotype control): substantially reduced
expression of fibrotic markers a-SMA and fibronectin in liver [3]: significant reductions
number of immune effector cells in lungs (CD3, CD4, CD8, CD19, DX5) [4]: increased the number of various immune effector cell
